Molecular target: NyxA (for SEC-MALS and SAXS) (Brucella abortus 2308) (UniProt Q2YPD9)
Assay: SEC-MALS

Substance: NyxA (for SEC-MALS and SAXS) (from UniProt Q2YPD9 1-129) (natural protein)
- stoichiometry N: 2
